The target in experiment [1] is T1, extracellular domain (ECD) of human αKlotho, amino acids E34-S981 with C-terminal 6-His tag (R&D Systems … (human, UniProt Q9UEF7 34-981)).
T1 construct: range 34-981; also called αKlotho (aa34-981); target antigen
T1 sequence: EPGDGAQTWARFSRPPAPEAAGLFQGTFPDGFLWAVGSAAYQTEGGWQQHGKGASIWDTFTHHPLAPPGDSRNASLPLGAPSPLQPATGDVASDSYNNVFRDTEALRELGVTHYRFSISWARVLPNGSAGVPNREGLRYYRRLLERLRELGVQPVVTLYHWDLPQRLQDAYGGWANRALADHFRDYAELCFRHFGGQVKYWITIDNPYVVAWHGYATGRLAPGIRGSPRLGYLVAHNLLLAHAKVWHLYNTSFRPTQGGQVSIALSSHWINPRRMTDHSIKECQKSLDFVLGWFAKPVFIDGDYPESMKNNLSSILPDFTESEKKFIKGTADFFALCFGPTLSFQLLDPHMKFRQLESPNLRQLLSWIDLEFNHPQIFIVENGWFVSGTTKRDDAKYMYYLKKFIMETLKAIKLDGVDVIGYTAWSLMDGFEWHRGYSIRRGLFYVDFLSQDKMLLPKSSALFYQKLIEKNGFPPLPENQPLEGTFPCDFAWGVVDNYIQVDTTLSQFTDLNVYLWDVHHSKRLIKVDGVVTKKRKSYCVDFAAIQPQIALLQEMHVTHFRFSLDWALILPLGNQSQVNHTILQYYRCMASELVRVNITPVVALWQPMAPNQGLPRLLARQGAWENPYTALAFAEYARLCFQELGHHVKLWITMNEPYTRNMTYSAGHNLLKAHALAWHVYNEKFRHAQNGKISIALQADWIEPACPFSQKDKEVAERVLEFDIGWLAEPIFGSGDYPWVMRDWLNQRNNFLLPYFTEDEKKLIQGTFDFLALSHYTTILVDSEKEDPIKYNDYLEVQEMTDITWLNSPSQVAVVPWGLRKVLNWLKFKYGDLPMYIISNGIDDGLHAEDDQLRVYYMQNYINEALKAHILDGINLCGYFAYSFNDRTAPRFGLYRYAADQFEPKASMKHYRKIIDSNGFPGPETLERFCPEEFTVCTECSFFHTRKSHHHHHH
Kind of experiment: SPR, Fab captured by anti-H+L IgG, αKlotho injected at 50 to 6.25 ug/ml, Langmuir fit [continued]. On the procedure:
(§1) Affinity estimates for each of the antibodies were determined by surface plasmon resonance (SPR). Fabs were immobilized using an anti-H+L antibody and serial dilutions of αKlotho were injected.

Experiment [2] deals with T1, extracellular domain (ECD) of human …. Kind of experiment: SPR, Fab captured by anti-H+L antibody, αKlotho injected. On the procedure:
as §1
Background: In SPR one partner is held on a chip, and binding of the other changes the refractive index at the surface.

For experiment [3], the target named is T2, bovine serum albumin (bovine, UniProt P02769 25-607).
T2 construct: also called BSA
T2 sequence (P02769 25-607 limits assumed): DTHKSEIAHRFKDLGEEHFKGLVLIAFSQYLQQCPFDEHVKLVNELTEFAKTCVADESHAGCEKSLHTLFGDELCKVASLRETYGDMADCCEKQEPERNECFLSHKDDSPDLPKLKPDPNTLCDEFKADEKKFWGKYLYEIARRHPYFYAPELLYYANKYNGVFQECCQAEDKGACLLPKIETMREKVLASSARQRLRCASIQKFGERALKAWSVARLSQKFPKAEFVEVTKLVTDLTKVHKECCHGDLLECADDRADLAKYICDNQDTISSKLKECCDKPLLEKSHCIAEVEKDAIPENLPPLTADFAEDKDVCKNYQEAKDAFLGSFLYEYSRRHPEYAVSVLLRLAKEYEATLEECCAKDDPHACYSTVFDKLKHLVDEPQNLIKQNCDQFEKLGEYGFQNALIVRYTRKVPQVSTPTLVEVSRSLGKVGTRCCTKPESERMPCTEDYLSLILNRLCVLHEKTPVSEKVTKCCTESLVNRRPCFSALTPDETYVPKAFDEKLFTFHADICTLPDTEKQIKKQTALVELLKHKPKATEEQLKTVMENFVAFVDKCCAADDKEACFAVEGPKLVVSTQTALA
Kind of experiment: Fab ELISA, purified Fab 5 ug/ml on immobilised BSA, anti-Flag-HRP, A450. On the procedure: FIG. 10 is a graph showing absorbance values of Fab ELISAs with additional αKlotho antibodies. Purified Fabs [5 ug/ml] were incubated with immobilized αKlotho (1 ug/ml) or bovine serum albumin (BSA), as a negative control. After washing off unbound Fab, bound Fab were detected using an HRP-conjugated anti-Flag anti-body (Fabs have Flag-tag on the light chain). Colorimetric HRP reagents allow for absorbance readings at 450 nm.
For orientation: ELISA stands for enzyme-linked immunosorbent assay.

B1: anti-αKlotho Fab clone 4812 (Fab, V domains shown)
VH: EVQLVESGGGLVQPGGSLRLSCAASGFNLSSYSMHWVRQAPGKGLEWVASISSYSGYTSYADSVKGRFTISADTSKNTAYLQMNSLRAEDTAVYYCARSYSWWWSVSYAMDYWGQGTLVTVSS
VL: DIQMTQSPSSLSASVGDRVTITCRASQSVSSAVAWYQQKPGKAPKLLIYSASSLYSGVPSRFSGSRSGTDFTLTISSLQPEDFATYYCQQGYWLFTFGQGTKVEIK
notes: Fab (also as Fab-phage); FLAG tag on light chain; also called sb181
In experiment [1], B1 came in with a Kd of 0.387 nM, a dissociation rate constant (koff) of 0.000191 s⁻¹ and an association rate constant (kon) of 493000 M⁻¹ s⁻¹. Further, in experiment [2], the Kd amounted to 0.885 nM.

B2: anti-αKlotho Fab clone 4818 (Fab, V domains shown)
VH: EVQLVESGGGLVQPGGSLRLSCAASGFNISYSSIHWVRQAPGKGLEWVASISPYSGYTYYADSVKGRFTISADTSKNTAYLQMNSLRAEDTAVYYCARSGHSVYWWWSHFGMDYWGQGTLVTVSS
VL: DIQMTQSPSSLSASVGDRVTITCRASQSVSSAVAWYQQKPGKAPKLLIYSASSLYSGVPSRFSGSRSGTDFTLTISSLQPEDFATYYCQQPYSPITFGQGTKVEIKR
notes: Fab (also as Fab-phage); FLAG tag on light chain; also called sb187
In experiment [1], B2 showed a Kd of 1.05 nM, a koff of 0.000539 s⁻¹ and a kon of 512000 M⁻¹ s⁻¹. Moreover, the equilibrium dissociation constant (Kd) in experiment [2] is 2.1 nM.

B3: anti-αKlotho Fab clone 4809 (Fab, V domains shown)
VH: EVQLVESGGGLVQPGGSLRLSCAASGFNIYSYYIHWVRQAPGKGLEWVASIYSYYGSTSYADSVKGRFTISADTSKNTAYLQMNSLRAEDTAVYYCARSGPWAWYGLDYWGQGTLVTVSS
VL: DIQMTQSPSSLSASVGDRVTITCRASQSVSSAVAWYQQKPGKAPKLLIYSASSLYSGVPSRFSGSRSGTDFTLTISSLQPEDFATYYCQQSGWAYHPITFGQGTKVEIKR
notes: Fab (also as Fab-phage); FLAG tag on light chain; also called sb178
In experiment [1], B3 had a dissociation constant (Kd) of 0.46 nM, an off-rate constant (koff) of 0.000258 s⁻¹ and an on-rate constant (kon) of 560000 M⁻¹ s⁻¹. The binding result in experiment [3] is “no binding (tested: 5 ug/ml)”. The molecule further had a Kd in experiment [2] of 0.845 nM.

B4: anti-αKlotho Fab clone 4826 (Fab, V domains shown)
VH: EVQLVESGGGLVQPGGSLRLSCAASGFNISSYYMHWVRQAPGKGLEWVASISSSYGYTYYADSVKGRFTISADTSKNTAYLQMNSLRAEDTAVYYCARGYPASSYYYPSSALDYWGQGTLVTVSS
VL: DIQMTQSPSSLSASVGDRVTITCRASQSVSSAVAWYQQKPGKAPKLLIYSASSLYSGVPSRFSGSRSGTDFTLTISSLQPEDFATYYCQQAGFFSYPITFGQGTKVEIKR
notes: Fab (also as Fab-phage); FLAG tag on light chain; also called sb195
On to B4, for which, in experiment [1], binding was put at a Kd of 2.03 nM, the koff is 0.00218 s⁻¹ and the kon was 1.07e+06 M⁻¹ s⁻¹. For the same molecule, in experiment [2], the equilibrium dissociation constant (Kd) amounted to 3.3 nM.

B5: anti-αKlotho Fab clone 4813 (Fab, V domains shown)
VH: EVQLVESGGGLVQPGGSLRLSCAASGFNLYSSSIHWVRQAPGKGLEWVASISPYSGYTYYADSVKGRFTISADTSKNTAYLQMNSLRAEDTAVYYCARYYSGWYSPAWWYGIDYWGQGTLVTVSS
VL: DIQMTQSPSSLSASVGDRVTITCRASQSVSSAVAWYQQKPGKAPKLLIYSASSLYSGVPSRFSGSRSGTDFTLTISSLQPEDFATYYCQQAAWGGAPITFGQGTKVEIKR
notes: Fab (also as Fab-phage); FLAG tag on light chain; also called sb182
B5: in experiment [1], binding was put at a Kd of 2.8 nM, the koff is 0.00164 s⁻¹ and the association rate constant (kon) was determined as 588000 M⁻¹ s⁻¹. This molecule had a Kd in experiment [2] of 5.2 nM.

B6: anti-αKlotho Fab clone 4816 (Fab, V domains shown)
VH: EVQLVESGGGLVQPGGSLRLSCAASGFNFSSSSIHWVRQAPGKGLEWVASISSSYGYTYYADSVKGRFTISADTSKNTAYLQMNSLRAEDTAVYYCARGWYAAYSVYWFGGHASYGLDYWGQGTLVTVSS
VL: DIQMTQSPSSLSASVGDRVTITCRASQSVSSAVAWYQQKPGKAPKLLIYSASSLYSGVPSRFSGSRSGTDFTLTISSLQPEDFATYYCQQSSYSLITFGQGTKVEIKR
notes: Fab (also as Fab-phage); FLAG tag on light chain; also called sb185
In experiment [1], B6 had a dissociation constant Kd of 2.06 nM, an off-rate (koff) of 0.00183 s⁻¹ and an association rate constant (kon) of 888000 M⁻¹ s⁻¹. This molecule also yielded a Kd in experiment [2] of 3.7 nM.

B7: anti-αKlotho Fab clone 4821 (Fab, V domains shown)
VH: EVQLVESGGGLVQPGGSLRLSCAASGFNLYYSYMHWVRQAPGKGLEWVASISPYSGSTYYADSVKGRFTISADTSKNTAYLQMNSLRAEDTAVYYCARSGFSSWWWVVSYAFDYWGQGTLVTVSS
VL: DIQMTQSPSSLSASVGDRVTITCRASQSVSSAVAWYQQKPGKAPKLLIYSASSLYSGVPSRFSGSRSGTDFTLTISSLQPEDFATYYCQQSSYSLITFGQGTKVEIKR
notes: Fab (also as Fab-phage); FLAG tag on light chain; also called sb190
In the case of B7, in experiment [1], the dissociation constant Kd turned out to be 2.85 nM, the dissociation rate constant (koff) was found to be 0.00277 s⁻¹ and the association rate constant (kon) came out at 973000 M⁻¹ s⁻¹. The same molecule registered a Kd in experiment [2] of 5.1 nM.

B8: anti-αKlotho Fab clone 4815 (Fab, V domains shown)
VH: EVQLVESGGGLVQPGGSLRLSCAASGFNFSSSSIHWVRQAPGKGLEWVASISSSYGYTYYADSVKGRFTISADTSKNTAYLQMNSLRAEDTAVYYCARGFSSSAHWYWSWYGPGGGFDYWGQGTLVTVSS
VL: DIQMTQSPSSLSASVGDRVTITCRASQSVSSAVAWYQQKPGKAPKLLIYSASSLYSGVPSRFSGSRSGTDFTLTISSLQPEDFATYYCQQSSYSLITFGQGTKVEIKR
notes: Fab (also as Fab-phage); FLAG tag on light chain; also called sb184
Regarding B8, the binding result in experiment [3] is “no binding (tested: 5 ug/ml)”.

B9: anti-αKlotho Fab clone 4806 (Fab, V domains shown)
VH: EVQLVESGGGLVQPGGSLRLSCAASGFNISSSSIHWVRQAPGKGLEWVAYISSSYSSTSYADSVKGRFTISADTSKNTAYLQMNSLRAEDTAVYYCARSSGGGYYHWWVVPYAMDYWGQGTLVTVSS
VL: DIQMTQSPSSLSASVGDRVTITCRASQSVSSAVAWYQQKPGKAPKLLIYSASSLYSGVPSRFSGSRSGTDFTLTISSLQPEDFATYYCQQSSYSLITFGQGTKVEIKR
notes: Fab (also as Fab-phage); FLAG tag on light chain; also called sb175
B9: in experiment [3], the binding result was “no binding (tested: 5 ug/ml)”.

B10: anti-αKlotho Fab clone 4817 (Fab, V domains shown)
VH: EVQLVESGGGLVQPGGSLRLSCAASGFNFSSSSIHWVRQAPGKGLEWVASISSSYGYTYYADSVKGRFTISADTSKNTAYLQMNSLRAEDTAVYYCARGYPSSGAAWFWFSHPGSAMDYWGQGTLVTVSS
VL: DIQMTQSPSSLSASVGDRVTITCRASQSVSSAVAWYQQKPGKAPKLLIYSASSLYSGVPSRFSGSRSGTDFTLTISSLQPEDFATYYCQQSSYSLITFGQGTKVEIKR
notes: Fab (also as Fab-phage); FLAG tag on light chain; also called sb186
In experiment [1], B10 yielded a dissociation constant Kd of 1.93 nM, a koff of 0.00269 s⁻¹ and a kon of 1.39e+06 M⁻¹ s⁻¹. In experiment [2], this molecule came in with an equilibrium dissociation constant (Kd) of 4.1 nM.

B11: anti-αKlotho Fab clone 4827 (Fab, V domains shown)
VH: EVQLVESGGGLVQPGGSLRLSCAASGFNFSSSSIHWVRQAPGKGLEWVAYISSSSGSTSYADSVKGRFTISADTSKNTAYLQMNSLRAEDTAVYYCARAYHSYFYGSYWSYGWAGALDYWGQGTLVTVSS
VL: DIQMTQSPSSLSASVGDRVTITCRASQSVSSAVAWYQQKPGKAPKLLIYSASSLYSGVPSRFSGSRSGTDFTLTISSLQPEDFATYYCQQSSYSLITFGQGTKVEIKR
notes: Fab (also as Fab-phage); FLAG tag on light chain; also called sb196
On to B11, for which the binding result in experiment [3] is given as “no binding (tested: 5 ug/ml)”.

B12: anti-αKlotho Fab clone 4810 (Fab, V domains shown)
VH: EVQLVESGGGLVQPGGSLRLSCAASGFNLSSSSIHWVRQAPGKGLEWVAYISPSYGSTSYADSVKGRFTISADTSKNTAYLQMNSLRAEDTAVYYCARSGYYSGAYWHWWVVPYAMDYWGQGTLVTVSS
VL: DIQMTQSPSSLSASVGDRVTITCRASQSVSSAVAWYQQKPGKAPKLLIYSASSLYSGVPSRFSGSRSGTDFTLTISSLQPEDFATYYCQQSSYSLITFGQGTKVEIKR
notes: Fab (also as Fab-phage); FLAG tag on light chain; also called sb179
As for B12, the binding result in experiment [3] was “no binding (tested: 5 ug/ml)”.

B13: anti-αKlotho Fab clone 4834 (Fab, V domains shown)
VH: EVQLVESGGGLVQPGGSLRLSCAASGFNFSSSSIHWVRQAPGKGLEWVASISSSYGYTYYADSVKGRFTISADTSKNTAYLQMNSLRAEDTAVYYCARAVSFYYWAWYGPGFAMDYWGQGTLVTVSS
VL: DIQMTQSPSSLSASVGDRVTITCRASQSVSSAVAWYQQKPGKAPKLLIYSASSLYSGVPSRFSGSRSGTDFTLTISSLQPEDFATYYCQQSSYSLITFGQGTKVEIKR
notes: Fab (also as Fab-phage); FLAG tag on light chain; also called sb203
For B13, in experiment [3], the binding result is on record as “no binding (tested: 5 ug/ml)”.

What is called Kd is a measure of binding affinity in units of concentration. As a reminder, the koff is a measure of how fast the partners let go of each other. A low value points to slow dissociation. Usually kon stands for the rate constant with which the complex forms. The low end stands for slower complex formation, the high end for faster complex formation.

The record behind these values is patent publication US20190041402A1 (GOVERNING COUNCIL OF THE UNIVERSITY OF TORONTO, published 2019).
